Molecular target: endogenous Miro1 of COS7 cells (monkey (endogenous in COS7))
Test: co-IP; COS7 cells co-transfected with FLAG-TRAK1 plus Myc-DISC1 or Myc-DISC1-37W, or empty vectors; IP with Miro1 antibody (endogenous Miro1); for quantification IP buffer with 0.1% SDS

Chain of endogenous Miro1 of COS7 cells (monkey (endogenous in COS7)) (Q8IXI2 whole entry): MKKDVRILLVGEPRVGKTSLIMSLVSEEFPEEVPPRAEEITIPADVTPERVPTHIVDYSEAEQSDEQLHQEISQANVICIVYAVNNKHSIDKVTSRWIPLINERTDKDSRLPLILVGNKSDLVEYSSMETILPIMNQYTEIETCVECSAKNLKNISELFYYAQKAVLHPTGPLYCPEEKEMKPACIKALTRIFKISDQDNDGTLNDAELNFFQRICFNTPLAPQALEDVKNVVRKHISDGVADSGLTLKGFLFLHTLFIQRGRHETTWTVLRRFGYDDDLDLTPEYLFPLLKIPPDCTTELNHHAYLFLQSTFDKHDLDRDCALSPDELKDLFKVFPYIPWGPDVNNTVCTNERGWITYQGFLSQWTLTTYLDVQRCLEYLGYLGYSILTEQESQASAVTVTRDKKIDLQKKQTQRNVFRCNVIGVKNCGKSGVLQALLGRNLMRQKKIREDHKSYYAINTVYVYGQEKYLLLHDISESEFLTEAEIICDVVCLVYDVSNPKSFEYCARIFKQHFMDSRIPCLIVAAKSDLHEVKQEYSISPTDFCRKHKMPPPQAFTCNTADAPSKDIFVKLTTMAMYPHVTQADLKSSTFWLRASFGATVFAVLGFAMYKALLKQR

- decrease of co-IP in cells expressing Myc-DISC1-37W against cells expressing Myc-DISC1: 20%
B1: FLAG-tagged TRAK1 (trafficking-protein-Kinesin-binding-1), aa 2-953, in COS7 (natural protein)
chain: ALVFQFGQPVRAQPLPGLCHGKLIRTNACDVCNSTDLPEVEIISLLEEQLPHYKLRADTIYGYDHDDWLHTPLISPDANIDLTTEQIEETLKYFLLCAERVGQMTKTYNDIDAVTRLLEEKERDLELAARIGQSLLKKNKTLTERNELLEEQVEHIREEVSQLRHELSMKDELLQFYTSAAEESEPESVCSTPLKRNESSSSVQNYFHLDSLQKKLKDLEEENVVLRSEASQLKTETITYEEKEQQLVNDCVKELRDANVQIASISEELAKKTEDAARQQEEITHLLSQIVDLQKKAKACAVENEELVQHLGAAKDAQRQLTAELRELEDKYAECMEMLHEAQEELKNLRNKTMPNTTSRRYHSLGLFPMDSLAAEIEGTMRKELQLEEAESPDITHQKRVFETVRNINQVVKQRSLTPSPMNIPGSNQSSAMNSLLSSCVSTPRSSFYGSDIGNVVLDNKTNSIILETEAADLGNDERSKKPGTPGTPGSHDLETALRRLSLRRENYLSERRFFEEEQERKLQELAEKGELRSGSLTPTESIMSLGTHSRFSEFTGFSGMSFSSRSYLPEKLQIVKPLEGSATLHHWQQLAQPHLGGILDPRPGVVTKGFRTLDVDLDEVYCLNDFEEDDTGDHISLPRLATSTPVQHPETSAHHPGKCMSQTNSTFTFTTCRILHPSDELTRVTPSLNSAPTPACGSTSHLKSTPVATPCTPRRLSLAESFTNTRESTTTMSTSLGLVWLLKERGISAAVYDPQSWDRAGRGSLLHSYTPKMAVIPSTPPNSPMQTPTSSPPSFEFKCTSPPYDNFLASKPASSILREVREKNVRSSESQTDVSVSNLNLVDKVRRFGVAKVVNSGRAHVPTLTEEQGPLLCGPPGPAPALVPRGLVPEGLPLRCPTVTSAIGGLQLNSGIRRNRSFPTMVGSSMQMKAPVTLTSGILMGAKLSKQTSLR

From publication PMC3900104
